According to US20170190774A1 (REPROPHARM, published 2017):
Like-named read-outs stand apart in the source and are kept apart here. Each block holds one binder with its values, some of them ahead of it.

Legend:
[1] = target: T1, human FSH Gonal-F (recombinant human FSH, Merck Serono) (human, UniProt P01215 25-116; P01225 19-129); test: cell-based or functional assay
[2] = target: T2, ovine FSH (oFSH) (ovine, UniProt P01218 25-120; P01227 20-129); test: cell-based or functional assay
[3] = target: T3, β-subunit of human FSH (human, UniProt P01225 19-129); test: ELISA, subunit adsorbed on the plate, antibody titrated; (A/B)x100 relative to oFSH
T3 construct: mature; Isolated subunit adsorbed on the ELISA plate; also called β-s.u. hFSH
T3 sequence (P01225 19-129): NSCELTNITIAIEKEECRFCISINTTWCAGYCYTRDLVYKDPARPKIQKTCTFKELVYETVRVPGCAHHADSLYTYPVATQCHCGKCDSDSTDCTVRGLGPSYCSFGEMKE
Experimental: (§1) The specificity of the antibodies and of the scFv thereof was studied by the ELISA technique. Each hormone evaluated was prepared at the concentration of 10 μg/ml in a 0.1M sodium carbonate buffer, pH 9.6, and distributed in a proportion of 100 μl per well on an ELISA plate. The adsorption time was 18 hours at +4° C. After five washes, the wells were treated with 100 μl of PBS supplemented with 0.1% Tween and 1% BSA for 45 minutes at 37° C., then each antibody or scFv was distributed in a proportion of 100 μl/well and incubated for one hour at 37° C. On each hormone evaluated, the antibodies and the scFvs were distributed at various concentrations according to a range of 10 to 250 μg/ml for the antibodies and of 10 to 150 or 200 μg/ml for the scFvs.
(§2) After five washes, a secondary antibody coupled to peroxidase (HRP) was distributed in a proportion of 100 μl/well and incubated for one hour at 37° C. […] For the scFvs, an anti-His Tag HRP (Ref. R93125 Life Technologies, France) was used. […] After the reaction had been stopped with 1M H₂SO₄ (50 μl/well), the strength of the colored reaction (optical density) was measured using a spectrophotometer for ELISA plates.
(§3) The percentage of cross reaction was calculated conventionally by comparing the dose-response curves obtained with the concentration range of the antibody or of the scFv.

[4] = target: T4, α-subunit of ovine FSH (ovine, UniProt P01218 25-120); test: as above
Experimental: as §1, §2, §3

[5] = target: T5, β-subunit of ovine FSH (ovine, UniProt P01227 20-129); test: as above
T5 construct: mature; Isolated subunit adsorbed on the ELISA plate; also called β-s.u. oFSH; β-oFSH
Experimental: as §1, §2, §3

[6] = target: T6, porcine FSH (pFSH) (porcine, UniProt P01219 25-120; P01228 21-129); test: ELISA, hormone adsorbed on the plate, antibody titrated; (A/B)x100 relative to oFSH
Experimental: as §1, §2, §3

[7] = target: T7, human FSH Fostimon (purified FSH extracted from urine, Laboratoire Genévrier) (human, UniProt P01215 25-116; P01225 19-129); test: as above
T7 construct: mature; Extracted pharmaceutical preparation; also called hFSH (Fostimon); hFSH Fostimon
T7 sequence (P01215 25-116, chain 1 of 2): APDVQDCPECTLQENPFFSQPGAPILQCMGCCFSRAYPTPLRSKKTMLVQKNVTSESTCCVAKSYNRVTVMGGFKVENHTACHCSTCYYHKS
T7 sequence (P01225 19-129, chain 2 of 2): as the sequence (P01225 19-129) above
Experimental: as §1, §2, §3

[8] = target: T1, human FSH Gonal-F (recombinant human …); test: as above
Experimental: as §1, §2, §3

[9] = target: T8, human FSH Puregon (recombinant human FSH, Merck Schering-Plough) (human, UniProt P01215 25-116; P01225 19-129); test: as above
T8 construct: mature; Recombinant pharmaceutical preparation; also called hFSH (Puregon); hFSH Puregon
T8 sequence (P01215 25-116, chain 1 of 2): as the sequence (P01215 25-116, chain 1 of 2) above
T8 sequence (P01225 19-129, chain 2 of 2): as the sequence (P01225 19-129) above
Experimental: as §1, §2, §3

[10] = target: T3, β-subunit of human FSH; test: ELISA, subunit adsorbed on the plate, antibody titrated; (A/B)x100 relative to oFSH; remark: listed apart in the source
[11] = target: T4, α-subunit of ovine FSH; test: as above; remark: listed apart in the source
[12] = target: T5, β-subunit of ovine FSH; test: as above; remark: listed apart in the source
[13] = target: T2, ovine FSH (oFSH); test: ELISA saturation binding, one site-specific binding fit in GraphPad Prism (estimate); differs from Table 25
[14] = target: T9, ovine LH (oLH) (ovine, UniProt P01218 25-120; P01231 21-141); test: ELISA saturation binding, one site-specific binding fit in GraphPad Prism (estimate)
Experimental: as §1

[15] = target: T6, porcine FSH (pFSH); test: as above
Experimental: as §1

[16] = target: T10, bovine LH (bLH) (bovine, UniProt P01217 25-120; P04651 21-141); test: as above
Experimental: as §1

[17] = target: T11, equine chorionic gonadotropin (eCG) (equine, UniProt P01220 25-120; P08751 21-169); test: as above
T11 construct: mature; Alpha/beta dimer
T11 sequence (P01220 25-120, chain 1 of 2): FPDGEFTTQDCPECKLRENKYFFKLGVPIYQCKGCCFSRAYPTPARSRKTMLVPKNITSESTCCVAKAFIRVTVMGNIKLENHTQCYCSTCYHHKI
T11 sequence (P08751 21-169, chain 2 of 2): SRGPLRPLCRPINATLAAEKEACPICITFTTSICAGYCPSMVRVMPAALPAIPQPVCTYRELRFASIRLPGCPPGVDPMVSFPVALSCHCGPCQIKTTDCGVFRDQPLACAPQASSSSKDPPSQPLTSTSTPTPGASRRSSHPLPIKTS
Experimental: as §1

[18] = target: T12, porcine LH (pLH) (porcine, UniProt P01219 25-120; P01232 21-141); test: as above
Experimental: as §1

[19] = target: T7, human FSH Fostimon (purified FSH …); test: as above
Experimental: as §1

[20] = target: T13, hCG Chorulon (human chorionic gonadotropin extracted from urine, MSD) (human, UniProt P01215 25-116; P0DN86 21-165); test: as above
T13 construct: mature; Extracted veterinary preparation
T13 sequence (P01215 25-116, chain 1 of 2, other chains not shown): as the sequence (P01215 25-116, chain 1 of 2) above
Experimental: as §1

[21] = target: T1, human FSH Gonal-F (recombinant human …); test: as above
Experimental: as §1

[22] = target: T8, human FSH Puregon (recombinant human …); test: as above
Experimental: as §1

[23] = target: T14, hCG Endo 5000 (purified human chorionic gonadotropin, Schering-Plough) (human, UniProt P01215 25-116; P0DN86 21-165); test: as above
T14 construct: mature; Extracted pharmaceutical preparation
T14 sequence (P01215 25-116, chain 1 of 2, other chains not shown): as the sequence (P01215 25-116, chain 1 of 2) above
Experimental: as §1

[24] = target: T2, ovine FSH (oFSH); test: as above
Experimental: as §1

[25] = target: T9, ovine LH (oLH); test: ELISA, hormone adsorbed on the plate, scFv titrated, anti-His HRP; (A/B)x100 relative to oFSH
Experimental: as §1, §2, §3

[26] = target: T6, porcine FSH (pFSH); test: as above
Experimental: as §1, §2, §3

[27] = target: T10, bovine LH (bLH); test: as above
Experimental: as §1, §2, §3

[28] = target: T12, porcine LH (pLH); test: as above
Experimental: as §1, §2, §3

[29] = target: T7, human FSH Fostimon (purified FSH …); test: as above
Experimental: as §1, §2, §3

[30] = target: T1, human FSH Gonal-F (recombinant human …); test: as above
Experimental: as §1, §2, §3

[31] = target: T8, human FSH Puregon (recombinant human …); test: as above
Experimental: as §1, §2, §3

T1 sequence (P01215 25-116, chain 1 of 2): as above
T1 sequence (P01225 19-129, chain 2 of 2): as the sequence (P01225 19-129) above

EC50 of the hFSH/CH10 complex, cAMP (GloSensor), HEK 293 cells with the human FSH receptor [1]: 0.000317 µM
amplification of cAMP secretion, bovine granulosa cells [2]: 5.5 fold
cross reaction [3]: 40%
cross reaction [4]: 43%
cross reaction [5]: 88%
cross reaction [6]: 24%
cross reaction [7]: 100%
cross reaction [8]: 50%
cross reaction [9]: 71%
B1: CH10 monoclonal antibody (antibody, IgM, V domains shown)
VH: EVQLVESGGGLVQPKGSLKLSCAASGFTFNTYAMNWVRQAPGKGLEWVARIRSKSNNYATYYADSVKDRFTISRDDSQSMLYLQMNNLKTEDTAMYYCVRQDYYGSSYFDYWGQGTTLTVSS
VL: DIVMTQSPATLSVTPGDRVSLSCRASQSISDYLHWYQQKSHESPRLLIKYASQSISGIPSRFSGSGSGSDFTLSINSVEPEDVGVYYCQNGHSFPYTFGGGTKLEIK
notes: also called CH10 antibody; CH10 ligand

cross reaction [10]: 50%
cross reaction [11]: 6%
cross reaction [12]: 80%
EC50 of the hFSH/CA5 complex, cAMP (GloSensor), HEK 293 cells with the human FSH receptor [1]: 0.000136 µM
EC50 of the oFSH/CA5 complex, cAMP (GloSensor), HEK 293 cells with the human FSH receptor [2]: 0.000283 µM
amplification of cAMP secretion, bovine granulosa cells [2]: 1.3 fold
cross reaction [6]: 134%
cross reaction [7]: 76%
cross reaction [8]: 128%
cross reaction [9]: 70%
B2: CA5 monoclonal antibody (antibody, IgG2a, V domains shown)
VH: EVKLVESGGGLVQPGGSLRLSCATSGFTFSDFYMEWVRQPPGKRLEWIAASRNKAKDYTTEYSASVKGRFIVSRDTSQSILYLQMNALRAEDTAIYFCARDARFAYWGQGTLVTVSA
VL: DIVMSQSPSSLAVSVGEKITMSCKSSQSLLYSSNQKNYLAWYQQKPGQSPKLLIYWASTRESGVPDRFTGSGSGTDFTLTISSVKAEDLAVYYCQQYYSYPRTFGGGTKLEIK
notes: also called CA5 antibody; CA5 ligand

Kd [13]: 7.51 µM
Kd [14]: 1.55 µM
Kd [15]: 5.22 µM
Kd [16]: 1.94 µM
Kd [18]: 2.47 µM
Kd [19]: 1.59 µM
Kd [20]: 1.47 µM
Kd [21]: 1.82 µM
Kd [22]: 11.5 µM
Kd [23]: 2.09 µM
Kd [24]: 2.85 µM
cross reaction [25]: 68%
cross reaction [26]: 175%
cross reaction [27]: 52%
cross reaction [28]: 63%
cross reaction [29]: 30%
cross reaction [30]: 32%
cross reaction [31]: 67%
B3: CH10 scFv (scFv)
scFv: QVQLQQSGGGLVQPKGSLKLSCAASGFTFNTYAMNWVRQAPGKGLEWVARIRSKSNNYATYYADSVKDRFTISRDDSQSMLYLQMNNLKTEDTAMYYCVRQDYYGSSYFDYWGQGTTLTVSSGGGGSGGGGSGGGGSDIQMTQTPATLSVTPGDRVSLSCRASQSISDYLHWYQQKSHESPRLLIKYASQSISGIPSRFSGSGSGSDFTLSINSVEPEDVGVYYCQNGHSFPYTFGGGTKLEIKHHHHHH
notes: VH-(Gly4Ser)3-VL-His6, made in the E. coli periplasm; also called scFv derived from the CH10 antibody
Kd [17]: 1.97 µM
